According to PMC4685450, “Crystal Structure of Human SSRP1 Middle Domain Reveals a Role in DNA Binding”:

B1: GC-rich dsDNA (dsDNA)
DNA 1: GCGGCCCGCGCCCGCCGCCCCGCCGCGGCC
DNA 2: GGCCGCGGCGGGGCGGCGGGCGCGGGCCGC
B2: 30-bp linker dsDNA (dsDNA)
DNA 1: TCCAGTGCCGGTGTCGCTTGGGTCCCGAGG
DNA 2: CCTCGGGACCCAAGCGACACCGGCACTGGA
B3: AT-rich dsDNA (dsDNA)
DNA 1: ATAATTTATATTTATTATTTTATTATAATT
DNA 2: AATTATAATAAAATAATAAATATAAATTAT

Tests used:
Conditions in all cases: protein: recombinant; tags: N-terminal 6xHis; blunt
[1] = molecular target: T1, SSRP1-M (Homo sapiens, UniProt Q08945 196-430); test: EMSA; no obvious difference from linker DNA; EMSA buffer, salt, pH and temperature not given in the material; proteins purified in 20 mM Tris-HCl, 200 mM NaCl, pH 7.0
[2] = molecular target: T1, SSRP1-M; test: EMSA (agarose and native PAGE); oligomerized complex in wells; EMSA buffer, salt, pH and temperature not given in the material; proteins purified in 20 mM Tris-HCl, 200 mM NaCl, pH 7.0
[3] = molecular target: SSRP1-N (Homo sapiens, UniProt Q08945 1-176); test: EMSA (agarose); EMSA buffer, salt, pH and temperature not given in the material; proteins purified in 20 mM Tris-HCl, 200 mM NaCl, pH 7.0
[4] = molecular target: SSRP1-C (Homo sapiens, UniProt Q08945 513-709); test: as above
Sequence of SSRP1-C (Q08945 513-709): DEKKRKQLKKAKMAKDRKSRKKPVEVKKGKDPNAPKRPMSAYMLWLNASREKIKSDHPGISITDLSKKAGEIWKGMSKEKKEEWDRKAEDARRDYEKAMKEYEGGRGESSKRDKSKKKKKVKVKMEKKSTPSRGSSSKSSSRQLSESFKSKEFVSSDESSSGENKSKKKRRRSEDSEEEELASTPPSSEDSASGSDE

T1 sequence (Q08945 196-430): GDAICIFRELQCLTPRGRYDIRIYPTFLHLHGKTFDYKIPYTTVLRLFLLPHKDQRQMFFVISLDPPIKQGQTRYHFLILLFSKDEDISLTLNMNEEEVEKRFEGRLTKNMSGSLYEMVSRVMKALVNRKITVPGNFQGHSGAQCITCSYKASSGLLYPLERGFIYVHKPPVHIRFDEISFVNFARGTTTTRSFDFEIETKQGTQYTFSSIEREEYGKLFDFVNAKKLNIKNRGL
Sequence of SSRP1-N (Q08945 1-176): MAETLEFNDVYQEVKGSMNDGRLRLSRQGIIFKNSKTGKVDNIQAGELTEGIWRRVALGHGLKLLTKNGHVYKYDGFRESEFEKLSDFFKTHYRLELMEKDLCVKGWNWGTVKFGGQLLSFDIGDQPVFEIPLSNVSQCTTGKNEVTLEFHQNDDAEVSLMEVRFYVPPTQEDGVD

| Binder | binding result [1] | binding result [2] | binding result [3] | binding result [4] |
| --- | --- | --- | --- | --- |
| B1 | binds | – | – | – |
| B2 | – | binds | no binding | binds |
| B3 | binds | – | – | – |
